Reference: US20120196335A1, “LIGF-TYPE TRANSFORMANTS FOR BIOCONVERSION OF LIGNIN-DERIVED COMPOUNDS” (priority 2010, published 2012)

Experiments:
[1] = in vitro biochemical assay for beta-etherase activity on fluorescent substrate MUAV (clarified E. coli cell extracts); settings: 0.1 mM MUAV substrate; E. coli cell extracts expressing the protein
Text: The model substrate synthesis 150 for use in the biochemical screening for selective activity can be outsourced through a contract research organization (CRO). The enzyme discovery effort can initially be focused on identifying potential beta-etherase candidate genes identified through bioinformatic methods. […] The fluorescent substrate α-O-(β-methylumbelliferyl)acetovanillone (MUAV), for example, can be used in in vitro assays to identify beta-etherase function (Acme Biosciences, Mt. View, Calif.). The formation of 4 methylumbelliferone (4MU) upon hydrolysis of the aryl ether bond can be monitored by fluorescence, for example, at λex=365 nm and λem=450 nm (or 460 nm).
The enzyme screening 155 is done to identify novel etherases 160. […] Expression of the beta-etherase genes can be done in 5 ml or 25 ml samples of the recombinant E. coli strains in LB medium using induction with IPTG. Following induction, and cell harvest, cell pellets can be lysed using the BPER (Invitrogen) cell lysis system. […] The formation of 4 methylumbelliferone (4MU) upon hydrolysis of the aryl ether bond in MUAV can be monitored by fluorescence at λex=365 nm and λem=460 nm, and can provide quantitative measurement of beta-etherase function. Cell extracts of E. coli transformed with the S. paucimobilis ligE and ligF genes can be the assay positive controls. Test or unknown samples can include, for example, E. coli strains expressing putative beta-etherase genes from N. aromaticovorans.
This example describes a method for gene expression in E. coli, as well as beta-etherase biochemical assays. Expression of known and putative beta-etherase genes was performed using 5 ml cultures of the recombinant E. coli strains described herein in Luria Broth medium by induction of gene expression using isopropylthiogalactoside (IPTG) to a final concentration of 0.1 mM. Following induction, and cell harvest, the cells were disrupted using either sonication or the BPER (Invitrogen) cell lysis system.
In vitro reactions were performed in a total volume of 200 ul and contained: 25 mM TrisHCl pH 7.5; 0.5 mM dithiothreitol; 1 mM glutathione; 0.05 mM or 0.1 mM MUAV; 10 ul of clarified cell extract used to initiate the reactions. Following incubation for 2.5 hours at room temperature, a 50 ul sample of the reactions was terminated using 150 uL of 300 mM glycine/NaOH buffer pH 9. The formation of 4 methylumbelliferone (4MU) upon hydrolysis of the aryl ether bond was monitored by the increase in fluorescence at λex=360 nm and λem=450 nm using a Spectramax UV/visible/fluorescent spectrophotometer.
The total protein concentrations of the cell lysates were determined using the BCA reagent system for protein quantification (Pierce).
Induction might be also performed using IPTG concentrations in the range of 0.01-1 mM. Cell disruption might be also performed using toluene permeabilization, French pressure techniques, or using multiple freeze/thaw cycles in conjunction with lysozyme. Assay conditions might be varied to include TrisHCl at 10-150 mM concentrations and in the pH range of 6.5-8.5; 0-2 mM dithiothreitol; 0.05-2 mM glutathione; 0.01-5 mM MUAV substrate; 22-42° C. reaction temperatures. The biochemical assay might be performed as a fixed time point assay with reaction times ranging from 5 minutes-12 hours, or performed continuously without quenching with glycine/NaOH buffer to extract enzyme kinetic parameters.

[2] = LigDFEG gene cluster, FIG. 2B; cited from earlier work

B1: LigF: S. paucimobilis beta-etherase, positive control, GenBank BAA02031.1, SEQ ID NO:513 (protein)
chain: MTLKLYSFGPGANSLKPLATLYEKGLEFEQVFVDPSKFEQHSDWFKKINPRGQVPALWHDGKVVTESTVICEYLEDVFPESGNSLRPADPFKRAEMRVWTKWVDEYFCWCVSTIGWAFGIKAIAQKMSDEEFEEHINKNVPIPEQQLKWRRARNGFPQEMLDEEFRKVGVSVARLEETLSKQDYLVDTGYSLADICNFAIANGLQRPGGFFGDYVNQEKTPGLCAWLDRINARPAIKEMFEKSKREDLLKRQNEKVA
[1]
  total activity (beta-etherase): 558 rfu/ug
[2]
  enzyme activity shown by gene product: β-etherase activity
